Measured values from patent publication US20100166741A1 (Genentech, published 2010).

B1: 11G9 (antibody, V domains shown)
VH: DVQLQESGPSLVKPSQTLSLTCSVTGDSITSGYWNWIRKFPGNKLEYMGYISYSGSTYYNPSLKSRISITRDTSKNQFYLQLLSVTTEDTATYYCAGLDGLYWYFDVWGAGTLVTVSS
VL: DIVMTQTPLSLPVSLGDQASISCRSSQSLVHSNGNTYLHWYLQKPGQSPKLLIYKVSNRFSGVPDRFSGSGSGTDFTLKISRVEAEDLGVYFCSQSTHVPPFTFGSGT
notes: also called chimeric 11G9
B2: V3-1 (antibody, V domains shown)
VH: EVQLVESGGGLVQPGGSLRLSCAASGFTISSNSIHWVRQAPGKGLEWVAWITPSDGNTDYADSVKGRFTISADTSKNTAYLQMNSLRAEDTAVYYCARRVCYNRLGVCAGGMDYWGQGTLVTVSS
VL: DIQMTQSPSSLSASVGDRVTITCRASQDVSTAVAWYQQKPGKAPKLLIYSASFLYSGVPSRFSGSGSGTDFTLTISSLQPEDFATYYCQQSRITPPTFGQGTKVEIKR
B3: 2.1 (antibody, V domains shown)
VH: EVQLQESGPSLVKPSQTLSLTCSVTGDSITRGYWNWIRKFPGNKLEFMGYINYSGTTYYNPSLKSRISITRDTSKNQYYLQLNSVTTEDTATYYCATPHTYGAMDYWGQGTTLTVSA
VL: DIVLTQSPVSLAVSLGQRATISCRASESVDDYGISFMHWYQQKPGQPPKLLIYRASDLESGIPARFSGSGSGTDFTLTINPVETDDVAIYYCQQTSKDPWTFGGGT
notes: also called chimeric 2.1
B4: Hu9.1RF IgG1 2% G0-F (antibody)
heavy: not shown
light: DIQMTQSPSSLSASVGDRVTITCKSSQSLLYSSNQNNYLAWYQQKPGKAPKLLIYWASTRESGVPSRFSGSGSGTDFTLTISSLQPEDFATYYCQQYYTYPYTFGQGTKVEIKRTVAAPSVFIFPPSDEQLKSGTASVVCLLNNFYPREAKVQWKVDNALQSGNSQESVTEQDSKDSTYSLSSTLTLSKADYEKHKVYACEVTHQGLSSPVTKSFNRGEC
modifications: 2% G0-F (afucosylated) Fc glycan content
notes: Same protein as Hu9.1RF IgG1; glycoform composition; also called 2% G0-F GLP-Hu9.1RF IgG1; 2% afucosylated Hu9.1RF IgG1
B5: Hu9.1RF IgG1 4% G0-F (antibody)
heavy: not shown
light: B4 light
modifications: expected 4% G0-F (determined 3%)
notes: Mixture of 37% G0-F and 2% G0-F Hu9.1RF IgG1
B6: Hu9.1RF IgG1 6% G0-F (antibody)
heavy: not shown
light: B4 light
modifications: expected 6% G0-F (determined 6%)
notes: as for B5
B7: Hu9.1RF IgG1 10% G0-F (antibody)
heavy: not shown
light: B4 light
modifications: expected 10% G0-F (determined 8%)
notes: as for B5
B8: Hu9.1RF IgG1 20% G0-F (antibody)
heavy: not shown
light: B4 light
modifications: expected 20% G0-F (determined 23%)
notes: as for B5

Legend:
[1] = target: T1, miniBR3 displayed on M13 phage (epitope-tagged, fused to gene-8 major coat protein) (human; bacteriophage M13, UniProt Q96RJ3 17-42); assay: shotgun Ala scan, miniBR3 phage
T1 construct: range 17-42; also called p-miniBR3
Excerpt: Each “partial miniBR3” template was used as the template for Kunkel mutagenesis with mutagenic oligonucleotides designed to replace the template stop codons with the complementary region of miniBR3, while simultaneously introducing mutations at the desired sites. At the sites of mutation, wild-type codons were replaced with the corresponding shotgun alanine codon (Weiss, supra). Each of these two libraries allowed for mutations at 11 residues in miniBR3 with no mutated positions in common between libraries. Library 1 encoded shotgun codons at positions 17, 18, 20-23, 25, 27, 28, 30, and 33, while library 2 encoded shotgun codons at positions 26, 29, 31, 34, and 36-42. Each library contained 2×10⁹ members, allowing for complete representation of the theoretical diversity (>10⁴-fold excess).
The display selection was included in order to normalize the anti-BR3 antibody-binding selection for expression differences between library members. Phage eluted from each target were propagated in E. coli XL1-blue; amplified phage were used for selection against the same target as in the previous round. After two rounds of selection, 48 individual clones from each library and selection were grown in a 96-well format in 400 L of 2YT medium supplemented with carbenicillin and KO7 helper phage.
F-values were calculated as previously described (Weiss, supra-, Gordon, supra). […] Deleterious mutations have ratios >1, while advantageous mutations have ratios <1; boldface indicates a >10-fold effect.

[2] = target: T2, human FcγRI extracellular domain, His-tagged GST fusion (human, UniProt P12314 16-292); assay: ELISA, captured FcγR-GST, monomeric IgG
T2 construct: extracellular domain; also called hFcgRI; FcγRIA; not shown: C-terminal Gly/His6/GST tag

[3] = target: T3, human FcγRIIb extracellular domain, His-tagged GST fusion (human, UniProt P31994 43-217); assay: ELISA, captured FcγR-GST, multimeric IgG
T3 construct: extracellular domain; also called hFcgRIIb; CD32B; not shown: C-terminal Gly/His6/GST tag
T3 sequence (looked up): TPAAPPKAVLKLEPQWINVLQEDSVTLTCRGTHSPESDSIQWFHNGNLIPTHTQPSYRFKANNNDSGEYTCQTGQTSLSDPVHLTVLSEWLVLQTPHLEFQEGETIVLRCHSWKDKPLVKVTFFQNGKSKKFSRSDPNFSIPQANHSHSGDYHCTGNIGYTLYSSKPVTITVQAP

[4] = target: T4, human FcγRIIa extracellular domain, His-tagged GST fusion (human, UniProt P12318 34-217); assay: ELISA, captured FcγR-GST, multimeric IgG
T4 construct: extracellular domain; also called hFcgRIIa; CD32A; not shown: C-terminal Gly/His6/GST tag
T4 sequence (looked up): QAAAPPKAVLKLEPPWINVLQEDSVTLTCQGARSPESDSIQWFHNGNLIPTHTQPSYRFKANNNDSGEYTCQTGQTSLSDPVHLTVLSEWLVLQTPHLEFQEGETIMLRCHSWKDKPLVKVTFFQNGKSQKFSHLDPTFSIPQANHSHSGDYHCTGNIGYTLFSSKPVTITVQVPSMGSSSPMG

Binder	F value, mutation at BR3 A22 [1]	F value, mutation at BR3 A34 [1]	F value, mutation at BR3 D26 [1]	F value, mutation at BR3 E23 [1]	F value, mutation at BR3 F25 [1]	F value, mutation at BR3 G36 [1]	F value, mutation at BR3 H31 [1]	F value, mutation at BR3 L27 [1]	F value, mutation at BR3 L28 [1]	F value, mutation at BR3 L37 [1]	F value, mutation at BR3 L38 [1]	F value, mutation at BR3 P18 [1]	F value, mutation at BR3 P21 [1]	F value, mutation at BR3 P41 [1]	F value, mutation at BR3 R30 [1]	F value, mutation at BR3 R39 [1]	F value, mutation at BR3 R42 [1]	EC50 [2] [ng/mL]	EC50 [3] [µg/mL]	EC50 [4] [µg/mL]	other results
B1	45	32	8.5	6.9	38	1.8	2.8	1.1	0.4	0.7	0.9	0.5	40	1.7	1.7	3.1	0.9				F value, mutation at BR3 T17 [1]: 0.5; F value, mutation at BR3 T40 [1]: 0.5; F value, mutation at BR3 V20 [1]: 1.1; F value, mutation at BR3 V29 [1]: 1; F value, mutation at BR3 V33 [1]: 24
B2	0.7	13	8.7	2.4	21	0.7	0.1	1.4	98	0.7	1.4	0.8	0.6	1.6	20	0.4	0.9				F value, mutation at BR3 T17 [1]: 0.5; F value, mutation at BR3 T40 [1]: 0.6; F value, mutation at BR3 V20 [1]: 0.9; F value, mutation at BR3 V29 [1]: 92; F value, mutation at BR3 V33 [1]: 14
B3	3.2	62	6.1	9.6	49	14	0.6	0.8	0.1	0.1	0.9	0.5	1.9	0.7	10	0.5	1.8				F value, mutation at BR3 T17 [1]: 0.6; F value, mutation at BR3 T40 [1]: 0.2; F value, mutation at BR3 V20 [1]: 3; F value, mutation at BR3 V29 [1]: 0.5; F value, mutation at BR3 V33 [1]: 10
B4																		3.92	0.96	0.3	
B5																		3.73	0.95	0.26	
B6																		4.12	0.91	0.23	
B7																		3.91	0.88	0.24	
B8																		3.74	0.82	0.17	
